Source: the Human Domainome abundance scans (Beltran et al. 2025)

B1: Gamma-crystallin S, residues 96 to 176; numbered along this chain, P22914 (parent)
chain: IQIFEKGDFSGQMYETTEDCPSIMEQFHMREIHSCKVLEGVWIFYELPNYRGRQYLLDKKEYRKPIDWGAASPAVQSFRRI

Variants of: B1
Assay: abundance fitness (aPCA) (normalised: wild type 0, dead -1); higher = more abundant; growth selection in yeast, the domain comes from the species named
Settings: Homo sapiens

Abundance fitness, by site and new letter:
T16: C 0.012, D -0.002, A 0.026
M13: Q 0.019, G -0.041, P 0.027, E 0.028, F -0.04, V -0.017, A -0.011, T 0.027, W -0.048, H 0.005, R -0.01, D -0.032, I 0.062, N -0.083, S -0.023, Y 0.094, C -0.012, K -0.032
Q12: N 0.09, Y 0.035, G 0.033, L -0.014, P 0.013, V 0.005, H -0.04, D 0.012, M 0.001, R 0.025, C -0.093, F -0.053, T 0.053, E -0.053, A -0.02, S 0.023
K6: R -0.047, V 0.033, P -1.1, M 0.049, S 0.085, T 0.007, Q -0.056, L -0.058, Y -0.033
F9: C 0.054, Y -0.008, H 0.067, V -0.12, T -0.051, D -0.409, S -0.068, K -0.095, P -0.481, M 0.061, N 0.068, A -0.064, I -0.009, W -0.018, G -0.035, E -0.18, Q 0.027, R -0.126
D8: V 0.039, S 0.093, P -0.012, Y 0.078, R 0.081, A 0.038, L 0.074, H 0.088, C 0.111, N 0.074, F 0.066, T 0.063, I 0.025, K 0.162
G11: E -0.01, D -0.009, W -0.171, V -0.208, N -0.002, A 0.041, Y -0.094, K 0.105, P 0.012, I -0.372, Q -0.003, F -0.294, L -0.137, S 0.06, R -0.135, H -0.021, C 0.066, M 0.062
Y14: T 0.086, R -0.004, A 0.049, H 0.034, D -0.01, I -0.003, C -0.027, P -0.993, G 0.028, S 0.07, E 0.113, W -0.056, V -0.002, Q 0.128, F -0.011, K -0.009, M -0.166, N 0.063
E15: F -0.05, A -0.011, M -0.18, T -0.064, H -0.095, G -0.044, C -0.137, D -0.046, I -0.183, P -0.038, K 0.147, Y 0.115, Q 0.018, L -0.078, V -0.013, W -0.062, R -0.057
G7: S -0.01, W -0.041, A 0.043, K 0.079, N -0.16, I 0.034, M 0.012, H 0.013, R 0.052, Q -0.099, P 0.007, C -0.367, T -0.03, E -0.027, Y -0.025, D -0.019, F 0.084, V -0.012
S10: C -0.081, N 0.069, R -0.018, P -0.733, Q 0.022, L 0.005, G -0.004, V -0.003, W -0.047, E 0.013, M -0.033, I -0.059, K 0.006, A -0.039, F -0.091, Y 0.068, D -0.12, T -0.157
